Here are results for eight molecules from US20250154283A1 (published 2025).

Residue numbers refer to the chain shown, from its start.

T1: biotinylated cynomolgus monkey VWF cysteine knot (CK) domain construct (cynomolgus monkey, biotinylated in vitro (BirA) on the biotinylation tag; one N-glycan)
T1 construct: Expressed in HEK293 EBNA cells; disulfide-linked homodimer; also called cyno VWF CK; cyno VWF CK domain; not shown: in vitro biotinylation tag, HRV-3C site and 3 VWF residues before the CK domain
T1 chain: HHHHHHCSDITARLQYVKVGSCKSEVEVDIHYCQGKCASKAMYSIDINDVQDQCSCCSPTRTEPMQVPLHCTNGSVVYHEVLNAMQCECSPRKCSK

B1: Lib1_P1_C6_scFv (scFv)
scFv: QVQLVQSGAEVKKPGASVKVSCKVSGYTFASHYIHWVRQAPGKGLEWMGGMDPATGQTIYAQKFQGRVTMTEDTSTDTAYMELSSLKSEDTAVYYCAKGDRSSWYEVLSFQHWGQGTLVTVSSSGGSTITSYNVYYTKLSSSGTDIQMTQSPSSVSASVGDRVTITCRASQGISTDLAWYQQKPGKAPKLLIYDASILQRGVPSRFSGSGSGTDFTLTISSLQPEDFANYYCQQVRTYPFTFGGGTKVEIK
notes: VH-linker-VL; not shown: C-terminal 3xFLAG and SV5 tags
B2: Lib8_P4_D4_scFv (scFv)
scFv: QVQLVQSGAEVKKPGASVKVSCKVSGDTLSNYAIHWVRQAPGKGLEWMGGINPNAGTTIYAQKFQGRVTMTEDTSTDTAYMELSSLKSEDTAVYYCARDSSSWCPVGYYYYYMDVWGKGTTVTVSSSGGSTITSYNVYYTKLSSSGTDIQMTQSPSSVSASVGDRVTITCRASQSIGDFLAWYQQKPGKAPKLLIYDASHLQTGVPSRFSGSGSGTDFTLTISSLQPEDFANYYCQQTSTIPPTFGGGTKVEIK
notes: as for B1
B3: Lib1_P1_A1_scFv (scFv)
scFv: B2 scFv with C104S, P105Q, V106F
notes: as for B1
B4: 4142_Lib1_scFv (scFv)
scFv: QVQLVQSGAEVKKPGASVKVSCKVSGYPFTSSGIHWVRQAPGKGLEWMGGVIPLFGTANYAQKFQGRVTMTEDTSTDTAYMELSSLKSEDTAVYYCARIRVSSGWYRDYGMDVWGQGTTVTVSSSGGSTITSYNVYYTKLSSSGTDIQMTQSPSSVSASVGDRVTITCRASQDITNDLAWYQQKPGKAPKLLIYDASRLQSGVPSRFSGSGSGTDFTLTISSLQPEDFANYYCQQTFTTPLTFGGGTKVEIK
notes: as for B1
B5: 4029_Lib1_scFv (scFv)
scFv: B4 scFv with D173S, T175G, N176D, D177F, R198H, S201T, F237S, T239I, L241P
notes: as for B1
B6: Lib1_P1_E9_scFv (scFv)
scFv: QVQLVQSGAEVKKPGASVKVSCKVSGYTFTSHIIHWVRQAPGKGLEWMGGMNPYSNKAIYAQKFQGRVTMTEDTSTDTAYMELSSLKSEDTAVYYCARDASDYGDYGYYYYYMDVWGKGTTVTVSSSGGSTITSYNVYYTKLSSSGTDIQMTQSPSSVSASVGDRVTITCRASQYIGNDLAWYQQKPGKAPKLLIYEASQRPSGVPSRFSGSGSGTDFTLTISSLQPEDFANYYCQQQYNYPLTFGGGTKVEIK
notes: as for B1
B7: Lib4_P2_B4_scFv (scFv)
scFv: QVQLQESGPGLVKPSQTLSLTCTVSGASLGDQYWSWIRQPPGKGLEWIGYIHPSGDFDYNPSLKSRVTMSVDTSKNQFSLKVNSVTAADTAVYYCARHYSSSWYGTWYFDLWGRGTLVTVSSSGGSTITSYNVYYTKLSSSGTEIVMTQSPATLSLSPGERATLSCRASQNIGTNLAWYQQKPGQAPRLLIYDASVRAAGIPARFSGSGSGTDFTLTISSLEPEDFAVYYCQQSLTTPLTFGGGTKVEIK
notes: as for B1
B8: 4166_Lib4_scFv (scFv)
scFv: QVQLQESGPGLVKPSQTLSLTCTVSGESFSGHFWSWIRQPPGKGLEWIGYISQSGRTDYNPSLKSRVTMSVDTSKNQFSLKVNSVTAADTAVYYCARTLPRIQLWSPRGAFDIWGQGTMVTVSSSGGSTITSYNVYYTKLSSSGTEIVMTQSPATLSLSPGERATLSCRASQSLGRSLAWYQQKPGQAPRLLIYDASHRATGIPARFSGSGSGTDFTLTISSLEPEDFAVYYCQQYVSYPLTFGGGTKVEIK
notes: as for B1

The target in the first assay is T1, biotinylated cynomolgus monkey VWF …. As to the kind of experiment: SPR, scFv captured via anti-SV5, CK domain injected, pH 7.4, apparent Kd.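 Further: scFvs from crude yeast supernatants printed on an amine-coupled anti-SV5 lawn, Kd computed as koff over kon, likely overestimating affinity because the CK construct is dimeric.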
Regarding B1, the Kd amounted to 0.697 nM.

On to B2, for which the Kd turned out to be 0.206 nM.

For B3, the Kd worked out at 1.08 nM.

For B4, the Kd was 0.999 nM.

As for B5, the Kd came to 4.67 nM.

On to B6, for which the Kd turned out to be 0.536 nM.

In the case of B7, the Kd was found to be 0.096 nM.

B8: the Kd was 0.38 nM.

For the next assay, the target named is T2, biotinylated human VWF cysteine knot (CK) domain construct (human, UniProt P04275 2724-2813, biotinylated in vitro (BirA) on the biotinylation tag; one N-glycan).
T2 construct: Expressed in HEK293 EBNA cells; disulfide-linked homodimer; also called human VWF CK; human VWF CK domain; not shown: in vitro biotinylation tag, HRV-3C site and 3 VWF residues before the CK domain
Described as above.
As for B1, the Kd was determined as 0.691 nM.

On to B2, for which the Kd amounted to 0.917 nM.

With B3, the Kd was determined as 1.38 nM.

Turning to B4, the Kd turned out to be 0.839 nM.

In the case of B5, the Kd was determined as 4.27 nM.

In the case of B6, the Kd came to 0.915 nM.

For the molecule B7, the Kd was 1.07 nM.

For the molecule B8, the Kd was 0.958 nM.

The target in another assay is T2, biotinylated human VWF cysteine knot …. As to the kind of experiment: SPR, scFv captured via anti-SV5, CK domain injected, pH 5.5, apparent Kd.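 Further: scFvs from crude yeast supernatants captured on chip-bound anti-SV5 antibody, Kd computed as koff divided by kon, dimeric CK construct likely makes affinity appear higher.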
For the molecule B1, the Kd was 1.43 nM.

For B2, the Kd stood at 0.397 nM.

In the case of B3, the Kd is 0.202 nM.

In the case of B4, the Kd is 0.634 nM.

Turning to B5, the Kd worked out at 2.58 nM.

With B6, the Kd was determined as 0.639 nM.

Take B7: the Kd is 0.225 nM.

On to B8, for which the Kd came out at 0.567 nM.
